This data set concerns the molecule itself. Put plainly: SEC; last purification step of TraM on Superdex 200 Increase 10/300 in 20 mM Tris-HCl pH 7.5, 100 mM NaCl. Background: SEC sorts molecules by how far they enter the pores of the column.

These results are taken from PMC12117103, “Cryo-EM Structure of the relaxosome, a complex essential for bacterial mating and the spread of antibiotic resistance genes” (Nature Communications, 2024).

B1: TraM (F plasmid) (natural protein, E. coli F plasmid, UniProt P10026 1-127, looked up)
chain: MAKVNLYISNDAYEKINAIIEKRRQEGAREKDVSFSATASMLLELGLRVHEAQMERKESAFNQTEFNKLLLECVVKTQSSVAKILGIESLSPHVSGNSKFEYANMVEDIREKVSSEMERFFPKNDDE
notes: TraM accessory protein of the F plasmid; synthetic traM gene in the NcoI and HindIII sites of pET28a; In the relaxosome only an AlphaFold model was docked into low-resolution density; also called TraM tetramer; source: E. coli C41 (DE3), purified (ammonium sulphate, HiTrap Heparin, resource Q, HiTrap Blue, Superdex 200 SEC)
As to B1, the binding result is given as “binds”.
